Reference: patent US20250352667A1

How the values were obtained:
[1] = target: KEAP1 (wild-type full-length), His-tagged (human) (UniProt Q14145); test: AlphaScreen; 1228.8 nM FLAG-NRF2, 150 nM His-KEAP1; Rep 1; control for I86V
[2] = target: KEAP1 (wild-type full-length), His-tagged (human) (UniProt Q14145); test: AlphaScreen; 307.2 nM FLAG-NRF2, 150 nM His-KEAP1; signal against NRF2 only; control for I28V
[3] = target: KEAP1 (wild-type full-length), His-tagged (human) (UniProt Q14145); test: AlphaScreen; FLAG-NRF2 wt isoform 1 38.4 nM, His-KEAP1 150 nM; Repeat 2; positive control for Q75R
[4] = target: KEAP1 (wild-type full-length), His-tagged (human) (UniProt Q14145); test: AlphaScreen; 76.8 nM FLAG-NRF2, 150 nM His-KEAP1; signal against NRF2 only; control for I86V
[5] = target: KEAP1 (wild-type full-length), His-tagged (human) (UniProt Q14145); test: AlphaScreen; 614.4 nM FLAG-NRF2, 150 nM His-KEAP1; Rep 3; control for I86V
[6] = target: KEAP1 (wild-type full-length), His-tagged (human) (UniProt Q14145); test: AlphaScreen; 19.2 nM FLAG-NRF2, 150 nM His-KEAP1; wild type set to 100%
[7] = target: KEAP1 (wild-type full-length), His-tagged (human) (UniProt Q14145); test: AlphaScreen; 1228.8 nM FLAG-NRF2, 150 nM His-KEAP1; Rep 2; control for I86V
[8] = target: KEAP1 (wild-type full-length), His-tagged (human) (UniProt Q14145); test: AlphaScreen; 19.2 nM FLAG-NRF2, 150 nM His-KEAP1; Rep 2; control for I86V
[9] = target: KEAP1 (wild-type full-length), His-tagged (human) (UniProt Q14145); test: AlphaScreen; NRF2 wt isoform 1 1228.8 nM, KEAP1 150 nM; signal against NRF2-only control; control for Q75R
[10] = target: KEAP1 (wild-type full-length), His-tagged (human) (UniProt Q14145); test: AlphaScreen; 307.2 nM FLAG-NRF2, 150 nM His-KEAP1; Rep 1; control for I28V
[11] = target: KEAP1 (wild-type full-length), His-tagged (human) (UniProt Q14145); test: AlphaScreen; 19.2 nM FLAG-NRF2, 150 nM His-KEAP1; Rep 3; control for I86V
[12] = target: KEAP1 (wild-type full-length), His-tagged (human) (UniProt Q14145); test: AlphaScreen; FLAG-NRF2 wt isoform 1 153.6 nM, His-KEAP1 150 nM; Rep 2; positive control for Q75R
[13] = target: KEAP1 (wild-type full-length), His-tagged (human) (UniProt Q14145); test: AlphaScreen; mean over 9.6, 19.2 and 38.4 nM NRF2 wt isoform 1, KEAP1 150 nM; reference for Q75R
[14] = target: KEAP1 (wild-type full-length), His-tagged (human) (UniProt Q14145); test: AlphaScreen; 38.4 nM FLAG-NRF2, 150 nM His-KEAP1; Repeat 1 (same value as in Table 27)
[15] = target: KEAP1 (wild-type full-length), His-tagged (human) (UniProt Q14145); test: AlphaScreen; 9.6 nM FLAG-NRF2, 150 nM His-KEAP1 (same value as in Table 27)
[16] = target: KEAP1 (wild-type full-length), His-tagged (human) (UniProt Q14145); test: AlphaScreen; 153.6 nM FLAG-NRF2, 150 nM His-KEAP1; signal against NRF2 only
[17] = target: KEAP1 (wild-type full-length), His-tagged (human) (UniProt Q14145); test: AlphaScreen; 76.8 nM FLAG-NRF2, 150 nM His-KEAP1; Rep 1
[18] = target: KEAP1 (wild-type full-length), His-tagged (human) (UniProt Q14145); test: AlphaScreen; NRF2 Q75R 4.8 nM, KEAP1 150 nM; signal against NRF2-only control
[19] = target: KEAP1 (wild-type full-length), His-tagged (human) (UniProt Q14145); test: AlphaScreen; FLAG-NRF2 Q75R 1228.8 nM, His-KEAP1 150 nM; Rep 1
[20] = target: KEAP1 (wild-type full-length), His-tagged (human) (UniProt Q14145); test: AlphaScreen; FLAG-NRF2 Q75R 614.4 nM, His-KEAP1 150 nM; Rep 2
[21] = target: KEAP1 (wild-type full-length), His-tagged (human) (UniProt Q14145); test: AlphaScreen; FLAG-NRF2 Q75R 76.8 nM, His-KEAP1 150 nM; Rep 1
[22] = target: KEAP1 (wild-type full-length), His-tagged (human) (UniProt Q14145); test: AlphaScreen; FLAG-NRF2 Q75R 9.6 nM, His-KEAP1 150 nM; Repeat 1
[23] = target: KEAP1 (wild-type full-length), His-tagged (human) (UniProt Q14145); test: AlphaScreen; FLAG-NRF2 Q75R 38.4 nM, His-KEAP1 150 nM; Repeat 1
[24] = target: KEAP1 (wild-type full-length), His-tagged (human) (UniProt Q14145); test: AlphaScreen; mean over 9.6, 19.2 and 38.4 nM NRF2 I86V, KEAP1 150 nM; relative to wild-type NRF2 isoform 1
[25] = target: KEAP1 (wild-type full-length), His-tagged (human) (UniProt Q14145); test: AlphaScreen; FLAG-NRF2 I86V 9.6 nM, His-KEAP1 150 nM; Rep 2
[26] = target: KEAP1 (wild-type full-length), His-tagged (human) (UniProt Q14145); test: AlphaScreen; FLAG-NRF2 I86V 307.2 nM, His-KEAP1 150 nM; Rep 1
[27] = target: KEAP1 (wild-type full-length), His-tagged (human) (UniProt Q14145); test: AlphaScreen; FLAG-NRF2 I86V 1228.8 nM, His-KEAP1 150 nM; Rep 1

Sequence of KEAP1 (wild-type full-length), His-tagged (human) (Q14145 2-624 limits assumed): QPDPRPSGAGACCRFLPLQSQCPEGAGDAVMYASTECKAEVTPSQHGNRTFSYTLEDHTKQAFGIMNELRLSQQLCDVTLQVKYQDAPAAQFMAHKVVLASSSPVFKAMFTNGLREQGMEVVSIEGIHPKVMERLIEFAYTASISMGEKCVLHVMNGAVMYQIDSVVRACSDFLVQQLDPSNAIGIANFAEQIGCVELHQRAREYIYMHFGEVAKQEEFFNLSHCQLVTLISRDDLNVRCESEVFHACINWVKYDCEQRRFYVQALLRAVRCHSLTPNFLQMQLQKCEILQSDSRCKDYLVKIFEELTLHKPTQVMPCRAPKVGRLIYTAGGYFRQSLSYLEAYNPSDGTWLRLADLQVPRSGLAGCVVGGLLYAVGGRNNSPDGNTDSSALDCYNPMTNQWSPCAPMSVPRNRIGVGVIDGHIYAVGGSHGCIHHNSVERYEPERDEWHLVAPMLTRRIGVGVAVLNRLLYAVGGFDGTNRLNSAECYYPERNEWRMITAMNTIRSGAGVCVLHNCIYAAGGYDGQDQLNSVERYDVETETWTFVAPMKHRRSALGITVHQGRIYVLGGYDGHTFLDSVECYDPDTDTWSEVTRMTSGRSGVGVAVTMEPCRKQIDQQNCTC

B1: NRF2 isoform 1 (wild-type full-length), FLAG-tagged (protein)
chain: MMDLELPPPGLPSQQDMDLIDILWRQDIDLGVSREVFDFSQRRKEYELEKQKKLEKERQEQLQKEQEKAFFAQLQLDEETGEFLPIQPAQHIQSETSGSANYSQVAHIPKSDALYFDDCMQLLAQTFPFVDDNEVSSATFQSLVPDIPGHIESPVFIATNQAQSPETSVAQVAPVDLDGMQQDIEQVWEELLSIPELQCLNIENDKLVETTMVPSPEAKLTEVDNYHFYSSIPSMEKEVGNCSPHFLNAFEDSFSSILSTEDPNQLTVNSLNSDATVNTDFGDEFYSAFIAEPSISNSMPSPATLSHSLSELLNGPIDVSDLSLCKAFNQNHPESTAEFNDSDSGISLNTSPSVASPEHSVESSSYGDTLLGLSDSEVEELDSAPGSVKQNGPKTPVHSSGDMVQPLSPSQGQSTHVHDAQCENTPEKELPVSPGHRKTPFTKDKHSSRLEAHLTRDELRAKALHIPFPVEKIINLPVVDFNEMMSKEQFNEAQLALIRDIRRRGKNKVAAQNCRKRKLENIVELEQDLDHLKDEKEKLLKEKGENDKSLHLLKKQLSTLYLEVFSMLRDEDGKPYSPSEYSLQQTRDGNVFLVPKSKKPDVKKN
A-counts [1]: 2930 A-counts
S/N [2]: 1.3
A-counts (NRF2 plus KEAP1) [3]: 1450 A-counts
S/N [4]: 2.4
A-counts [5]: 2720 A-counts
Binding Percentage (%) [6]: 100%
A-counts [7]: 2770 A-counts
A-counts [8]: 3270 A-counts
S/N [9]: 0.9
A-counts [10]: 1850 A-counts
A-counts [11]: 3040 A-counts
A-counts (NRF2 plus KEAP1) [12]: 1500 A-counts
Average Binding [13]: 100%

B2: NRF2 isoform 1 (I28V full-length), FLAG-tagged (protein)
chain: MMDLELPPPGLPSQQDMDLIDILWRQDVDLGVSREVFDFSQRRKEYELEKQKKLEKERQEQLQKEQEKAFFAQLQLDEETGEFLPIQPAQHIQSETSGSANYSQVAHIPKSDALYFDDCMQLLAQTFPFVDDNEVSSATFQSLVPDIPGHIESPVFIATNQAQSPETSVAQVAPVDLDGMQQDIEQVWEELLSIPELQCLNIENDKLVETTMVPSPEAKLTEVDNYHFYSSIPSMEKEVGNCSPHFLNAFEDSFSSILSTEDPNQLTVNSLNSDATVNTDFGDEFYSAFIAEPSISNSMPSPATLSHSLSELLNGPIDVSDLSLCKAFNQNHPESTAEFNDSDSGISLNTSPSVASPEHSVESSSYGDTLLGLSDSEVEELDSAPGSVKQNGPKTPVHSSGDMVQPLSPSQGQSTHVHDAQCENTPEKELPVSPGHRKTPFTKDKHSSRLEAHLTRDELRAKALHIPFPVEKIINLPVVDFNEMMSKEQFNEAQLALIRDIRRRGKNKVAAQNCRKRKLENIVELEQDLDHLKDEKEKLLKEKGENDKSLHLLKKQLSTLYLEVFSMLRDEDGKPYSPSEYSLQQTRDGNVFLVPKSKKPDVKKN
A-counts [14]: 1690 A-counts
S/N [15]: 3.4
S/N [16]: 1.7
A-counts [17]: 1560 A-counts

B3: NRF2 isoform 1 (Q75R full-length), FLAG-tagged (protein)
chain: MMDLELPPPGLPSQQDMDLIDILWRQDIDLGVSREVFDFSQRRKEYELEKQKKLEKERQEQLQKEQEKAFFAQLRLDEETGEFLPIQPAQHIQSETSGSANYSQVAHIPKSDALYFDDCMQLLAQTFPFVDDNEVSSATFQSLVPDIPGHIESPVFIATNQAQSPETSVAQVAPVDLDGMQQDIEQVWEELLSIPELQCLNIENDKLVETTMVPSPEAKLTEVDNYHFYSSIPSMEKEVGNCSPHFLNAFEDSFSSILSTEDPNQLTVNSLNSDATVNTDFGDEFYSAFIAEPSISNSMPSPATLSHSLSELLNGPIDVSDLSLCKAFNQNHPESTAEFNDSDSGISLNTSPSVASPEHSVESSSYGDTLLGLSDSEVEELDSAPGSVKQNGPKTPVHSSGDMVQPLSPSQGQSTHVHDAQCENTPEKELPVSPGHRKTPFTKDKHSSRLEAHLTRDELRAKALHIPFPVEKIINLPVVDFNEMMSKEQFNEAQLALIRDIRRRGKNKVAAQNCRKRKLENIVELEQDLDHLKDEKEKLLKEKGENDKSLHLLKKQLSTLYLEVFSMLRDEDGKPYSPSEYSLQQTRDGNVFLVPKSKKPDVKKN
S/N [18]: 2.3
A-counts (NRF2 plus KEAP1) [19]: 705 A-counts
A-counts (NRF2 plus KEAP1) [20]: 855 A-counts
A-counts (NRF2 plus KEAP1) [21]: 1110 A-counts
A-counts (NRF2 plus KEAP1) [22]: 1180 A-counts
A-counts (NRF2 plus KEAP1) [23]: 1200 A-counts

B4: NRF2 isoform 1 (I86V full-length), FLAG-tagged (protein)
chain: MMDLELPPPGLPSQQDMDLIDILWRQDIDLGVSREVFDFSQRRKEYELEKQKKLEKERQEQLQKEQEKAFFAQLQLDEETGEFLPVQPAQHIQSETSGSANYSQVAHIPKSDALYFDDCMQLLAQTFPFVDDNEVSSATFQSLVPDIPGHIESPVFIATNQAQSPETSVAQVAPVDLDGMQQDIEQVWEELLSIPELQCLNIENDKLVETTMVPSPEAKLTEVDNYHFYSSIPSMEKEVGNCSPHFLNAFEDSFSSILSTEDPNQLTVNSLNSDATVNTDFGDEFYSAFIAEPSISNSMPSPATLSHSLSELLNGPIDVSDLSLCKAFNQNHPESTAEFNDSDSGISLNTSPSVASPEHSVESSSYGDTLLGLSDSEVEELDSAPGSVKQNGPKTPVHSSGDMVQPLSPSQGQSTHVHDAQCENTPEKELPVSPGHRKTPFTKDKHSSRLEAHLTRDELRAKALHIPFPVEKIINLPVVDFNEMMSKEQFNEAQLALIRDIRRRGKNKVAAQNCRKRKLENIVELEQDLDHLKDEKEKLLKEKGENDKSLHLLKKQLSTLYLEVFSMLRDEDGKPYSPSEYSLQQTRDGNVFLVPKSKKPDVKKN
Average Binding [24]: 96.8%
Avg. Reduction in Binding [24]: 3.2%
A-counts (NRF2 plus KEAP1) [25]: 2610 A-counts
A-counts (NRF2 plus KEAP1) [26]: 2210 A-counts
A-counts (NRF2 plus KEAP1) [27]: 1750 A-counts
